One assay addresses T1, cynomolgus EGFR antigen (cynomolgus monkey, UniProt A0A2K5WK39 25-645).
T1 construct: In-house antigen; also called cynomolgus antigen
The assay is described as follows: ELISA, coated cy EGFR. As for the experimental part:
(§1) Antibody-antigen binding was measured by ELISA with coated antigens. Human antigens were obtained from Sino Biologicals. All other antigens were produced in-house by transient expression in CHO or HEK293 cells. Chimeric and humanized antibodies, as well as an isotype control antibody, were incubated with the coated antigens at different concentrations. After wash, bound antibodies were detected by HRP-(horse radish peroxidase)-conjugated secondary antibodies.

For assay [1], the target named is T2, human EGFR antigen (Sino Biologicals) (human, UniProt P00533 25-645).
T2 construct: Bought soluble antigen; also called human antigen
The experiment in a line: ELISA, coated hu EGFR. The method, then:
as §1

The target in assay [2] is T3, human HER2 antigen (Sino Biologicals) (human, UniProt P04626 23-652).
T3 construct: Bought soluble antigen; also called human antigen
The experiment in a line: ELISA, coated hu HER2. The method, then:
as §1

The target of the next assay is T4, human HER4 antigen (human, UniProt Q15303 26-649, limits assumed).
T4 construct: Antigen coated for ELISA
T4 sequence (looked up): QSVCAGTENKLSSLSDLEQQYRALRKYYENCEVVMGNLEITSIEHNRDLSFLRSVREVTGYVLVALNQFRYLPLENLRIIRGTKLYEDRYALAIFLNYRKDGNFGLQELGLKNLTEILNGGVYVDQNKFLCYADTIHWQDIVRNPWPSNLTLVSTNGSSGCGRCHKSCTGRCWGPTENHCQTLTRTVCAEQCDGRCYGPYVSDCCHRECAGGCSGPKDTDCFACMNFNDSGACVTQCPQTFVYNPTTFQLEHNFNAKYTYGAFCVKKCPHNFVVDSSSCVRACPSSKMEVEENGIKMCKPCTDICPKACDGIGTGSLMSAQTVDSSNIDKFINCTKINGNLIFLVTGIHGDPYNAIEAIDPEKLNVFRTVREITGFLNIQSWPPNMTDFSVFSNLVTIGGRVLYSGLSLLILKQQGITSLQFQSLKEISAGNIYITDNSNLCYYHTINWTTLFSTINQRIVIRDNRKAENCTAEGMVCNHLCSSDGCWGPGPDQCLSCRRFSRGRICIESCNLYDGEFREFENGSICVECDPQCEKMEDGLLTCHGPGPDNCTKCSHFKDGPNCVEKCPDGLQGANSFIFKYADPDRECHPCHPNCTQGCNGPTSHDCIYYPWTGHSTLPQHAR
The assay is described as follows: ELISA, coated hu HER4. The method, then:
as §1
For orientation: In an ELISA, binding on a coated surface is turned into a signal by an enzyme label.

The next assay concerns the target T5, mouse EGFR antigen (mouse, UniProt Q01279 25-647, limits assumed).
T5 construct: In-house antigen coated for ELISA; also called mouse antigen; murine EGFR
The assay is described as follows: ELISA, coated mu EGFR. The method, then: as §1

Another assay addresses T6, mouse HER2 antigen (mouse, UniProt P70424 23-653, limits assumed).
T6 construct: In-house antigen coated for ELISA; also called mouse antigen; murine HER2
The experiment in a line: ELISA, coated mu HER2. As for the experimental part: as §1

The next assay addresses T7, mouse HER3 antigen (mouse, UniProt Q61526 20-641, limits assumed).
T7 construct: In-house antigen coated for ELISA; also called mouse antigen; murine HER3
The experiment in a line: ELISA, coated mu HER3. The method, then: as §1

Another assay addresses T8, murine HER4 antigen (mouse, UniProt Q61527 26-652, limits assumed).
T8 construct: In-house antigen coated for ELISA; also called mouse HER4
T8 sequence (looked up): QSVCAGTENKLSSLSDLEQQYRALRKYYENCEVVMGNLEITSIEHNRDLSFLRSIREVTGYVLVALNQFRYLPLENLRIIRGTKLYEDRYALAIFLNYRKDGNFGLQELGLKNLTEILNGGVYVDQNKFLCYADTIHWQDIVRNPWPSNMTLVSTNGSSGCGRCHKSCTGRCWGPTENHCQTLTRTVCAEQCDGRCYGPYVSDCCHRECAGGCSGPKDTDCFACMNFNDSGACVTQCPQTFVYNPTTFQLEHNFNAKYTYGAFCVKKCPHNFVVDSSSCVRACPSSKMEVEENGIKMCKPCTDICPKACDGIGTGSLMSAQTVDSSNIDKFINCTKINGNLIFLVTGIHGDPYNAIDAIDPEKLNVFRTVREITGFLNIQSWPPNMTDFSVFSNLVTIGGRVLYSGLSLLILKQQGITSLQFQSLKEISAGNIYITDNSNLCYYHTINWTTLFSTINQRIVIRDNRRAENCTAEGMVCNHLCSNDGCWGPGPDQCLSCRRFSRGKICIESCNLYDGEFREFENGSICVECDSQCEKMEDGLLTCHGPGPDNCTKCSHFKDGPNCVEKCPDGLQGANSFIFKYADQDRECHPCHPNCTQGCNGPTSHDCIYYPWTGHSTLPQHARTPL
The assay is described as follows: ELISA, coated mu HER4. As for the experimental part:
as §1

Assay [3] deals with T9, human HER3 antigen (Sino Biologicals) (human, UniProt P21860 20-643).
T9 construct: Bought soluble antigen; also called human antigen
The experiment in a line: SPR (ProteOn XPR36), IgG captured by anti-human Fc, soluble monovalent antigen, 1:1 fit. As for the experimental part: (§2) Kinetic binding analysis of the purified humanized variants was performed on a ProteOn™ XPR36 biosensor (BioRad, USA) employing an IgG capture assay as described by Canziani et al. (Anal. Biochem. (2004) 325:301-307) that allows for measurement of antibody affinities of whole IgG molecules against soluble antigen under monovalent conditions. Briefly, approximately 5000 resonance units (RU) of a monoclonal mouse anti-human IgG Fc antibody (GE Healthcare, Denmark) was conjugated to a GLC chip surface (BioRad, USA) according to the manufacturer's instructions, followed by capture of individual antibodies of the invention or a negative control on the anti-Fc sensor surface. […] Next, 250 μl monovalent antigen (Sino Biologicals) was injected at a flow rate of 50 μl/min in serial threefold dilutions from 100 nM stock to generate response curves. The chip surface was regenerated between cycles by stripping the captured antibody/antigen complexes off the surface with a 10-second injection of 3 M MgCl₂ (GE Healthcare, Denmark) repeated three times. Finally, binding responses were fitted to a Langmuir 1:1 binding model for calculation of the on-rate (kon or ka), off-rate (koff or kd) and affinity (KD) constants using double referencing.

For assay [4], the target named is T10, cynomolgus HER3 antigen (cynomolgus monkey, UniProt G7PIG5 20-643).
T10 construct: In-house antigen; also called cynomolgus antigen
The description is as above. The method, then:
as §2

The target of assay [5] is T10, cynomolgus HER3 antigen. The experiment in a line: ELISA, coated cy HER3. The method, then:
as §1

Assay [6] has as its target T9, human HER3 antigen (Sino Biologicals). The assay is described as follows: ELISA, coated hu HER3. The method, then:
as §1

The target in assay [7] is cynomolgus HER2 antigen (cynomolgus monkey). The assay is described as follows: SPR (ProteOn XPR36), IgG captured by anti-human Fc, soluble monovalent antigen, 1:1 fit.

T7 sequence (Q61526 20-641 limits assumed): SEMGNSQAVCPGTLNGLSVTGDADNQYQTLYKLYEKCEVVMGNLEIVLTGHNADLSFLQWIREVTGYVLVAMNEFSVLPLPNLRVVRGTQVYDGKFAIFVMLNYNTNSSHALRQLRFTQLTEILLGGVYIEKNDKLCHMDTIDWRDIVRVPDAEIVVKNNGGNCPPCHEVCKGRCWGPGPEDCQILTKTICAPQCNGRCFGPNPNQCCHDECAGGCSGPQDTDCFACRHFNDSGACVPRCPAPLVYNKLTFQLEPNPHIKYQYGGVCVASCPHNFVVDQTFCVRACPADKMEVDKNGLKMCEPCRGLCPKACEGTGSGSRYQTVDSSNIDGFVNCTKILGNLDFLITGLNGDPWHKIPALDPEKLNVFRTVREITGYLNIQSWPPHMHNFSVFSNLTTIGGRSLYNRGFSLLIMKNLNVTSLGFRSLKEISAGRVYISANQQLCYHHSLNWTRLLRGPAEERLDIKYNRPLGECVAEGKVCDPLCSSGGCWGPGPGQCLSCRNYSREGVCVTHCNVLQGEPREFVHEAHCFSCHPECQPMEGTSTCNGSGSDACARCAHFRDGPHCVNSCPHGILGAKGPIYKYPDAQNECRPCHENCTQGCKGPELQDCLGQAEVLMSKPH
T10 sequence (G7PIG5 entry or part of it): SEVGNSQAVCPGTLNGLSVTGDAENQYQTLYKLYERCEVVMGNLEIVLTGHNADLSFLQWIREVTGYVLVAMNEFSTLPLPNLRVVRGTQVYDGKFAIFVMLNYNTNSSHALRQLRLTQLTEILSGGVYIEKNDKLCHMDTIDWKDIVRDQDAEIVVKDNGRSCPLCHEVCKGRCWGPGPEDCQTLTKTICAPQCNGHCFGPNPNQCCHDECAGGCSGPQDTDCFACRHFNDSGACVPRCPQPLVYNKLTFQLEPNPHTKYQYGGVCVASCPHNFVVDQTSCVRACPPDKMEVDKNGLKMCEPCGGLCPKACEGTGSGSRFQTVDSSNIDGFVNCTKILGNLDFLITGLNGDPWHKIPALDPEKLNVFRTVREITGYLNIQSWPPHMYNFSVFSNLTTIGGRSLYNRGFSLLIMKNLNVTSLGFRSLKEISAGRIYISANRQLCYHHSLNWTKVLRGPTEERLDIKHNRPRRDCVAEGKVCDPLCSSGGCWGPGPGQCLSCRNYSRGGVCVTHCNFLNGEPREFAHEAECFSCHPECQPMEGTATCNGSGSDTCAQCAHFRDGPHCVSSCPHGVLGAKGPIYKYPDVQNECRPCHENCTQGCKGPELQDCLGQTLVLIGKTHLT
T6 sequence (P70424 23-653 limits assumed): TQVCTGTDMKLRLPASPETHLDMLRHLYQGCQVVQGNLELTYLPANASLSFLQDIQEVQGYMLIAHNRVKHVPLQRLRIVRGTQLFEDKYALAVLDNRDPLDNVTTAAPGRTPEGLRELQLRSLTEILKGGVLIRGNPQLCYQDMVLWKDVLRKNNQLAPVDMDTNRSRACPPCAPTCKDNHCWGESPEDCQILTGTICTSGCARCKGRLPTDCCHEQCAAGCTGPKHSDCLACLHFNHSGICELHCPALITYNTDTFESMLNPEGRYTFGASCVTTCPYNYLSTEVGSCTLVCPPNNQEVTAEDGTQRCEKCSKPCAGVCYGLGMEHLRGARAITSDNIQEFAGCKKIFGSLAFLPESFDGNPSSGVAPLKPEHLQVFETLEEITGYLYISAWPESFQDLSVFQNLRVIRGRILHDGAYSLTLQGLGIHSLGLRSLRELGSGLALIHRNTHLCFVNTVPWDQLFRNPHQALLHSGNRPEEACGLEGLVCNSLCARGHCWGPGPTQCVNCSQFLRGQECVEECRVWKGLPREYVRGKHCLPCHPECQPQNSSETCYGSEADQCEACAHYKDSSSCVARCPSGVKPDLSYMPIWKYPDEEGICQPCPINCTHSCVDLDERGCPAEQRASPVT

B1: humanized anti-HER3 antibody 11006 (antibody, V domains shown)
VH: QVQLQESGPGLVKPSQTLSLTCTVSGYSITSAYYWNWIRQHPGKGVEWMGYIGYSGRNTYNPSLKNRVTISRDTSKNQFSLKLSSVTAADTAVYYCSREGDYGYSDYWGQGTLVTVSS
VL: DIQMTQSPSSLSASVGDRVTVTCRASQDTNNYLNWYQQKPGKAVKLLIYYTSRLQSGVPSRFSGSGSGTDFTLTISSLQPEDFATYFCQQSETLPWTFGQGTKVEIK
The term koff denotes the rate constant with which the complex falls apart. High values mean fast dissociation, low ones slow dissociation. As a reminder, the kon is the rate constant with which the complex forms. A lower kon goes with slow association. One may read the Kd as a measure of binding affinity in units of concentration. Read a high Kd as lower affinity. B1: the binding result (with cynomolgus EGFR antigen; in assay [1]; in assay [2]; with human HER4 antigen; with mouse EGFR antigen; with mouse HER2 antigen) was “no binding (tested: 40 nM)” each time. The binding result in the assay with mouse HER3 antigen and with murine HER4 antigen was “no binding (tested: 40 nM)” each time. For the same molecule, the results for the koff (in assay [3]; in the assay with cynomolgus HER3 antigen [4]) were less than 2e-06 s⁻¹ and 8.7e-05 s⁻¹, respectively. Besides, the kon turned out to be 740000 M⁻¹ s⁻¹ in [3] and 1.5e+06 M⁻¹ s⁻¹ in the assay with cynomolgus HER3 antigen [4]. Further, the affinity with cynomolgus HER3 antigen [4], expressed as Kd, was 0.059 nM.

B2: humanized anti-HER3 antibody 11052 (antibody, V domains shown)
VH: QVQLQESGPGLVKPSQTLSLTCTVSGYSITSAYYWNWIRQFPGKGVEWMGYIGYSGRNTYNPSLKNRVTISRDTSKNQFSLKLSSVTAADTAVYYCSREGDYGYSDYWGQGTLVTVSS
VL: DIQMTQSPSSLSASVGDRVTVTCRASQDINNYLNWYQQKPGKAVKLLIYYTSRLQSGVPSRFSGSGSGTDYTLTISSLQPEDFATYFCQQSETLPWTFGQGTKLEIK
Regarding B2, the binding result (with cynomolgus EGFR antigen; in assay [1]; in assay [2]; with human HER4 antigen; with mouse EGFR antigen; in the assay with mouse HER2 antigen) was “no binding (tested: 40 nM)” each time. The binding result in the assay with mouse HER3 antigen and with murine HER4 antigen was “no binding (tested: 40 nM)” throughout. Also, the Kd in assay [3] was 0.18 nM; with cynomolgus HER3 antigen [4], 0.19 nM. Also, the koff in assay [3] worked out at 0.00016 s⁻¹; in the assay with cynomolgus HER3 antigen [4] it was 0.00026 s⁻¹. The results for the kon (in assay [3]; with cynomolgus HER3 antigen [4]) were 870000 M⁻¹ s⁻¹ and 1.3e+06 M⁻¹ s⁻¹, respectively.

B3: chimeric anti-HER2 antibody 4384 (antibody, V domains shown)
VH: QVQLQQPGTELVKPGASVKLSCKASGYTFTSHWMHWVKQRPGQGLEWIGNINPSNGGTNYNEKFKSRATLTVDKASSTAYMQLSSLTSEDSAVYYCARAYYDFSWFVYWGQGTLVTVS
VL: DIQMTQTSSSLSASLGDRVTISCRSSQDISNYLNWYQQKPDGTVKLLMYISRLHSGVPSRFSGSGSGTEYSLTISNLEQEDIATYFCQQGNTLPLTFGAGTKLELKR
notes: light chain entry is full length
Regarding B3, the binding result (with cynomolgus EGFR antigen; with cynomolgus HER3 antigen [5]; in assay [1]; in assay [6]; with human HER4 antigen; in the assay with mouse EGFR antigen) was “no binding (tested: 40 nM)” in each case. In addition, the binding result in the assay with mouse HER2 antigen, with mouse HER3 antigen and with murine HER4 antigen was “no binding (tested: 40 nM)” in each case. In addition, the equilibrium dissociation constant (Kd) in [7] is 2.9 nM. In assay [7], this molecule came in with a koff of 0.0005 s⁻¹. Besides, in assay [7], the kon was determined as 180000 M⁻¹ s⁻¹.

B4: humanized anti-HER2 antibody 11145 (antibody, V domains shown)
VH: EVQLVESGGGLVKPGGSLRLSCAASGFTFSSYGMSWVRQAPGKGLEWVATISGGGSYTYYPDSVKGRFTISRDIAKSSLYLQMNSLRAEDTAVYYCARKGNYGNYGKLAYWGQGTTVTVSS
VL: DIQMTQSPSSLSASVGDRVTITCRASENIYSNLAWYQQKPGKAPKLLIYAATNLATGVPSRFSGSGSGTDYTLTISSLQPEDFASYYCQHFWGTPWTFGQGTKLEIK
B4: the binding result (in the assay with cynomolgus EGFR antigen; with cynomolgus HER3 antigen [5]; in [1]; in [6]; with human HER4 antigen; in the assay with mouse EGFR antigen) was “no binding (tested: 40 nM)” in each case. For the same molecule, the binding result in the assay with mouse HER2 antigen, in the assay with mouse HER3 antigen and with murine HER4 antigen was “no binding (tested: 40 nM)” each time. Further, the Kd in assay [7] stood at 12 nM. Moreover, in assay [7], the koff was 0.00063 s⁻¹. Also, the kon in [7] came to 53000 M⁻¹ s⁻¹.

B5: humanized anti-HER2 antibody 10704 (antibody, V domains shown)
VH: QVQLVQSGAEVKKPGASVKVSCKASGYTFTSHWMHWVRQAPGQGLEWMGNINPSSGGTNYNEKFKSRVTLTVDKSTSTAYMELSSLRSEDTAVYYCARAYYDFSWFVYWGQGTLVTVSS
VL: DIQMTQSPSSLSASVGDRVTITCRSSQDISNYLNWYQQKPGKAVKLLMYISRLHSGVPSRFSGSGSGTDYTFTISSLQPEDIATYYCQQGNTLPLTFGGGTKVEIK
On to B5, for which the binding result (with cynomolgus EGFR antigen; with cynomolgus HER3 antigen [5]; in assay [1]; in assay [6]; in the assay with human HER4 antigen; with mouse EGFR antigen) was “no binding (tested: 40 nM)” each time. Besides, the binding result in the assay with mouse HER2 antigen, with mouse HER3 antigen and with murine HER4 antigen was “no binding (tested: 40 nM)” in each case.

The values above are taken from patent US20170165365A1 (SYMPHOGEN A S, published 2017).
